Ki data for six molecules are collected here from US20150119341A1.

The target in assay [1] is recombinant human melanocortin-1 receptor (hMCR-1a) in membrane homogenates of HEK-293 cells (human) (UniProt Q01726). In words: competitive inhibition of [I125]-NDP-alpha-MSH, hMCR-1 HEK-293 membranes.
Assay [2] addresses recombinant human melanocortin-4 receptor (hMCR-4) in membrane homogenates of HEK-293 cells (human) (UniProt P32245). In words: competitive inhibition of [I125]-NDP-alpha-MSH, hMCR-4 HEK-293 membranes.

[ ]: non-standard residue; d: D form. Nle = CCCC[C@H](N)C(=O)O; Orn = NCCC[C@H](N)C(=O)O; Dab = NCC[C@H](N)C(=O)O; Sar = CNCC(=O)O

recombinant human melanocortin-1 receptor (hMCR-1a) in membrane homogenates of HEK-293 cells (human), sequence (Q01726 whole entry): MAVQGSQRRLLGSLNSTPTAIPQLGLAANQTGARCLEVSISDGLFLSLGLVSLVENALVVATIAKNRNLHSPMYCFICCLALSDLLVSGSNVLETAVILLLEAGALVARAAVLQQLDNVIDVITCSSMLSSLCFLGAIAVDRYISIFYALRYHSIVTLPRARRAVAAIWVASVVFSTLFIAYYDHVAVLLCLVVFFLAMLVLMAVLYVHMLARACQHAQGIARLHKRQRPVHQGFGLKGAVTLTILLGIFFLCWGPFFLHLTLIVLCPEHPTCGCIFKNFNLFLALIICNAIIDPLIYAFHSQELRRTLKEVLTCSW
recombinant human melanocortin-4 receptor (hMCR-4) in membrane homogenates of HEK-293 cells (human), sequence (P32245 whole entry): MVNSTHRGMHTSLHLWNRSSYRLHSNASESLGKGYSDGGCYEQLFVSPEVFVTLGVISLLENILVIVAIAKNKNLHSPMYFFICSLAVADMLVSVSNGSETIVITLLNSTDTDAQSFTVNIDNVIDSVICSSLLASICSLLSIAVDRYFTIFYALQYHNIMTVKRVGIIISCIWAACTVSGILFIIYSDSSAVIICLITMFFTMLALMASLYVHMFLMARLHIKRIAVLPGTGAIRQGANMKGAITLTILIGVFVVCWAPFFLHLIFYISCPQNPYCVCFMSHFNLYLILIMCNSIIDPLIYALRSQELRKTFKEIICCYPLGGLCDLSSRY

B1: Ac-Nle-Ala-His-D-Phe-Arg-Sar-Trp-NH2 (peptide)
peptide: Ac-[Nle]AH[dF]R[Sar]W-NH2
SMILES: CCCC[C@H](NC(C)=O)C(=O)N[C@@H](C)C(=O)N[C@@H](Cc1c[nH]cn1)C(=O)N[C@H](Cc1ccccc1)C(=O)N[C@@H](CCCNC(=N)N)C(=O)N(C)CC(=O)N[C@@H](Cc1c[nH]c2ccccc12)C(N)=O
One may read the Ki as a dissociation constant, usually derived from enzyme kinetics or from competition with a known ligand. For B1, the Ki in assay [1] is 2 nM; in assay [2], 870 nM.

B2: Ac-Nle-Ala-His-D-Phe-Arg-Pro-D-Trp-NH2 (peptide)
peptide: Ac-[Nle]AH[dF]RP[dW]-NH2
SMILES: CCCC[C@H](NC(C)=O)C(=O)N[C@@H](C)C(=O)N[C@@H](Cc1c[nH]cn1)C(=O)N[C@H](Cc1ccccc1)C(=O)N[C@@H](CCCNC(=N)N)C(=O)N1CCC[C@H]1C(=O)N[C@H](Cc1c[nH]c2ccccc12)C(N)=O
Take B2: the results for the Ki in assay [1] and in assay [2] were 2 nM and 650 nM, respectively.

B3: Ac-Nle-Ala-His-D-Phe-Arg-D-Pro-Trp-NH2 (peptide)
peptide: Ac-[Nle]AH[dF]R[dP]W-NH2
SMILES: CCCC[C@H](NC(C)=O)C(=O)N[C@@H](C)C(=O)N[C@@H](Cc1c[nH]cn1)C(=O)N[C@H](Cc1ccccc1)C(=O)N[C@@H](CCCNC(=N)N)C(=O)N1CCC[C@@H]1C(=O)N[C@@H](Cc1c[nH]c2ccccc12)C(N)=O
On to B3, for which the Ki in assay [1] was 14 nM; in assay [2], 6200 nM.

B4: Ac-Nle-Ala-Dab-D-Phe-Arg-Ala-Trp-NH2 (peptide)
peptide: Ac-[Nle]A[Dab][dF]RAW-NH2
SMILES: CCCC[C@H](NC(C)=O)C(=O)N[C@@H](C)C(=O)N[C@@H](CCN)C(=O)N[C@H](Cc1ccccc1)C(=O)N[C@@H](CCCNC(=N)N)C(=O)N[C@@H](C)C(=O)N[C@@H](Cc1c[nH]c2ccccc12)C(N)=O
Consider B4, for which the Ki in assay [1] came to 2 nM; in assay [2], 7850 nM.

B5: Ac-Nle-Ala-His-D-Phe-Arg-Ala-D-Trp-NH2 (peptide)
peptide: Ac-[Nle]AH[dF]RA[dW]-NH2
SMILES: CCCC[C@H](NC(C)=O)C(=O)N[C@@H](C)C(=O)N[C@@H](Cc1c[nH]cn1)C(=O)N[C@H](Cc1ccccc1)C(=O)N[C@@H](CCCNC(=N)N)C(=O)N[C@@H](C)C(=O)N[C@H](Cc1c[nH]c2ccccc12)C(N)=O
As for B5, the inhibition constant (Ki) in assay [1] is 7 nM; in assay [2], 215 nM.

B6: Ac-Nle-Ala-Orn-D-Phe-Arg-Ala-Trp-NH2 (peptide)
peptide: Ac-[Nle]A[Orn][dF]RAW-NH2
SMILES: CCCC[C@H](NC(C)=O)C(=O)N[C@@H](C)C(=O)N[C@@H](CCCN)C(=O)N[C@H](Cc1ccccc1)C(=O)N[C@@H](CCCNC(=N)N)C(=O)N[C@@H](C)C(=O)N[C@@H](Cc1c[nH]c2ccccc12)C(N)=O
As to B6, the figures for the Ki in assay [1] and in assay [2] were 0.3 nM and 7580 nM, respectively.
